“Also recorded” adds a separate entry of the source.
B1: PO: class I hydrophobin from Pleurotus ostreatus, produced recombinantly in E. coli (protein, UniProt O60048 22-113, looked up)
Class I hydrophobin POH3: IPRTNPPAPTCTTGSLQCCNSVQAASNPVVGLLAGLLGIVLGPITGQVGLTCSPITVIGVGGTSCSAQTVCCNGNSFNGLIVVGCSPVNISL
modifications: recombinant in E. coli
B2: SC: class I hydrophobin from Schizophyllum commune, produced recombinantly in E. coli (protein, UniProt P16933 25-136, looked up)
Class I hydrophobin SC3: GGHPGTTTPPVTTTVTVTTPPSTTTIAAGGTCTTGSLSCCNQVQSASSSPVTALLGLLGIVLSDLNVLVGISCSPLTVIGVGGSGCSAQTVCCENTQFNGLINIGCTPINIL
modifications: recombinant in E. coli

Tests used:
[1] = Crystallisation of paracetamol in presence of hydrophobins (cooling from 95° C. to RT, visual assessment); type: physicochemical; settings: 100 ppm protein; for visual assessment after 0 min (protein without API; no clouding = no denaturation): no API present, 95° C.; for visual assessment after 0 min / visual assessment <5 min: paracetamol present; for visual assessment after 0 min: after injection at 95° C.; for visual assessment <5 min: cooling at RT
Experimental: The hydrophobin solution is prepared by solubilization of 10 mg of lyophilized powder (protein content at least 60-80%) in 1 mL pure water. Insoluble residues are removed by centrifugation.
15 g of API (Paracetamol, Sigma) are dissolved in 150 mL pure water. Aliquots of 10 mL of the resulting solution are transferred into 15 mL sealable polypropylene tubes that have been pre-heated to 95° C. in order to prevent the onset of crystallization. To ensure uniform temperature, the tubes are shaken for 15-30 min at 95° and 750 rpm on a thermomixer (Eppendorf Thermomixer Comfort), then 100 μL of the hydrophobin solution is added under continued mixing at 95° C.; final protein concentration in the sample is 100 ppm. After 1-2 min the tubes are withdrawn from the thermomixer to allow cooling without shaking at RT. Control samples are treated in the same way except that 100 μL of pure water are added instead of the hydrophobin solution, or no API is present.

[2] = Crystallisation of benzamide in presence of SC, PO, TT or TR (cooling, visual assessment); type: physicochemical; settings: 100 ppm protein
Experimental: 15 g of benzamide (Fluke) are dissolved in 150 mL pure water. Aliquots of 10 mL of the resulting solution are transferred into 15 mL sealable polypropylene tubes that have been pre-heated to 95° C. in order to prevent the onset of crystallization. To assure uniform temperature, the tubes are shaken for 15-30 min at 95° and 750 rpm on a thermomixer (Eppendorf Thermomixer Comfort), then 100 μL of the hydrophobin solution (prepared according to the method given in example 1) is added (the tubes are still shaken to allow homogeneous mixing and tempering). After 1-2 min the tubes are withdrawn from the thermomixer to allow cooling without shaking at RT. Control samples are treated in the same way except that 100 μL of pure water are added instead of the hydrophobin solution, or no API is present.
(§1) The results of a visual assessment after the hydrophobin injection (final concentration in the sample is 100 ppm) are compiled in the following table.

[3] = Crystallisation and redispersion of Venlafaxine (IPA, visual assessment); type: physicochemical; settings: for re-suspension on pouring after vigorous shaking (Vortex) for 10-15 sec: Venlafaxine crystallized over night; for (RT) dispersability: Venlafaxine crystals
Experimental: 15 g of Venlafaxine (Ciba) are dissolved in 150 mL IPA. Aliquots of 10 mL of the resulting solution are transferred into 15 mL sealable polypropylene tubes that have been pre-heated to 95° C. To assure uniform temperature, the tubes are agitated for 15-30 min at 80° and 750 rpm on a thermomixer (Eppendorf Thermomixer Comfort), then 100 μL of the protein solution (prepared according to the method given in example 1) is added. Control samples are treated in the same way except that 100 μL of pure water are added instead of the hydrophobin solution, or no API is present.
as §1
The mother liquor crystallizes completely over night, with crystals adhering together covered by the solvent.

[4] = Crystallisation of Atorvastatin by evaporation in dishes, microscopic inspection; type: physicochemical; settings: Atorvastatin in water/acetonitrile, 100 ppm hydrophobin, vs hydrophobin-free control
Experimental: a) 15 g of Atorvastatin (Ciba) are dissolved in 75 mL pure water and 75 mL acetonitrile by heating to 50° C. and stirring for 2 h. The resulting solution is filtered (0.45 μm). Aliquots of 10 mL are transferred into 15 mL sealable polypropylene tubes that have been pre-heated to 50° C. in order to prevent the onset of crystallization. To assure uniform temperature, the tubes are shaken for 15-30 min at 50° and 750 rpm on a thermomixer (Eppendorf Thermomixer Comfort), then 100 μL of the protein solution (prepared according to the method given in example 1) is added (final concentration: 100 ppm). Control samples are treated in the same way except that 100 μL of pure water are added instead of the hydrophobin solution, or no API is present.
1 mL of each sample is poured into dishes (Ø5 cm) in order to allow crystallization by evaporation. The dried crystals (˜20 h later) are microscopically inspected.

[5] = Atorvastatin crystallisation by evaporation on protein-coated object slides; type: physicochemical; settings: object slides coated with protein (100 μg protein/mL over night), vs non-coated control
Experimental: b) In a further set of tests, object slides are coated with protein by incubation in a solution as prepared according to the method given in example 1 (100 μg protein/mL) over night. The object slides then are washed and air dried before 50 μL of Atorvastatin solution as described above is coated on the slide.

[6] = from 72; at 50 microgram/ml; cited from earlier work
[7] = Venlafaxine in IPA, 100 ppm protein

Molecule | visual assessment after 0 min (protein without API; no clouding = no denaturation) [1] | visual assessment after 0 min [1] | visual assessment <5 min [1] | crystal size 15 min ([1]; paracetamol) | crystal size >20 h ([1]; paracetamol) | crystal size 15 min [2] | crystal size <5 min [2] | crystal size >20 h [2] | visual assessment <5 min [2] | visual assessment after 0 min [2] | re-suspension on pouring after vigorous shaking (Vortex) for 10-15 sec [3] | (RT) dispersability [3] | visual assessment 120 min [3, 7] | visual assessment after 0 min [3, 7] | crystal growth after crystallization by evaporation [4] | crystal growth by evaporation on coated glass surface [5] | further results
B1 | clear | clouding | few crystals | cryst. 0.2-0.5 mm | crystals 0.5-1 mm | crystals 0.2-0.5 mm | 0.2-0.5 mm | crystals 0.5-1 mm | few crystals | clouding | predominantly the remaining mother liquor is poured out | poor | crystals | clouding | more evenly crystal growth | more regular crystal growth; also recorded: more evenly crystal growth | crystal size <5 min ([1]; paracetamol): 0.2-0.5 mm; crystal size 20 min [3, 7]: crystals 0.2 mm; crystal size <5 min [3, 7]: crystals 0.1 mm
B2 | clear | streaks | clear | cryst. 0.1-0.2 mm | crystals 0.5 mm | crystals 0.1-0.2 mm | 0.1-0.2 mm | crystals 0.5-1 mm | few crystals | clouding | complete emptying of the tubes | Best dispersability and best | crystals | streaks | more evenly crystal growth | more regular crystal growth; also recorded: more evenly crystal growth | visual assessment 20 min [3, 7]: clear; visual assessment <5 min [3, 7]: clear; maximal lowering of the water surface tension [6]: 24 mJ m^−2
